The target in test [1] is superfolder GFP (sfGFP) [GFP: P42212]. In words: SEC-SAXS; in-line Superdex 75 10/300 GL; 50 µL loaded at approximately 50 mg mL^-1 (> approximately 10 mg mL^-1 after dilution on the column); 25 mM Tris pH 7.5, 150 mM NaCl; profiles compared with CRYSOL curves of monomer and dimer of the usGFP crystal structure. On the technique in general: SEC sorts molecules by how far they enter the pores of the column.

The next test concerns the target enhanced GFP (EGFP). The experiment in a line: AUC; sedimentation velocity; 0.33, 0.65 and 1.3 mg mL^-1; 20 mM Tris pH 7.5, 150 mM NaCl; 50,000 rpm, 20 °C; absorbance at 280 nm; c(s) distributions and weight average sedimentation coefficients against concentration.
The target of test [2] is ultra-stable GFP (usGFP) [GFP: P42212]. The experiment in a line: SEC-SAXS; in-line Superdex 75 10/300 GL; 50 µL loaded at approximately 50 mg mL^-1 (> approximately 10 mg mL^-1 after dilution on the column); 25 mM Tris pH 7.5, 150 mM NaCl; profiles compared with CRYSOL curves of monomer and dimer of the usGFP crystal structure.

This note sets out measurements from article PMC5766548.

The term stoichiometry N denotes a count of units in the complex or per binding partner. Regarding “superfolder GFP (sfGFP) (from UniProt P42212 1-238)”, in test [1], the stoichiometry N was 2.

Regarding enhanced GFP (EGFP), in the test with enhanced GFP (EGFP), the stoichiometry N was 2.

The substance “ultra-stable GFP (usGFP) (from UniProt P42212 1-238)” came in with a stoichiometry N in test [2] of 2.
